These results are taken from patent US20190142971A1, “FORMULATION AND DELIVERY OF MODIFIED NUCLEOSIDE, NUCLEOTIDE, AND NUCLEIC ACID COMPOSITIONS” (ModernaTX, Inc., priority 2013, published 2019).

Common to all, as to type: in vivo
Data set [1] relates to mice. Nature of the data set: Example 42B: EPO mRNA dose response IM in mice (Table 68). The conditions noted are these: Dose Vol. (μl/mouse) 100, 13 hours. Here is the method:
The mice were bled at 13 hours after the injection to determine the concentration of the human polypeptide in serum in pg/mL.

Data set [2] has as its system Sprague-Dawley rats. In words: Example 35: duration after IM EPO mRNA in rats, serum EPO (Table 61). The conditions noted are these: rats IM 100 μg, 24, 48 and 72 hour. Here is the method:
The rats were bled 2, 6, 12, 24, 48 and 72 hours after the intramuscular injection to determine the concentration of human EPO in serum at a given time.

Data set [3] has as its system mice. In words: Example 65: G-CSF/EPO mRNA in saline in mice, serum protein at 13 hours (Table 97). The conditions noted are these: 100 ug, 100 μl/mouse, F. buffer, 13 hours after injection; for Average Protein Product, serum (human G-CSF): G-CSF group. Here is the method:
The mice were bled at 13 hours after the injection to determine the concentration of the human polypeptide in serum in pg/mL. (G-CSF groups measured human G-CSF in mouse serum and EPO groups measured human EPO in mouse serum).

Data set [4] relates to C57/BL6 mice. In words: Example 34: EPO mRNA in buffer IM or SC in mice, serum EPO (Table 60). To be noted: dose 100 μg, 13 hours post injection. As for the experimental part:
Mice were intramuscularly or subcutaneously injected with 50 μl of the modified human EPO mRNA (h-EPO), modified luciferase mRNA (Luc) or the formulation buffer (F.Buffer) as described in the dosing chart Table 60. 13 hours post injection blood was collected and serum was analyzed to determine the amount human EPO for each mouse or rat.

The test system of data set [5] is mice. In words: Example 42A: G-CSF/EPO mRNA in buffer IM in mice, serum protein at 13 hours (Table 67). The conditions noted are these: IM 100 ug. As for the experimental part: The mice were bled at 13 hours after the injection to determine the concentration of the human polypeptide in serum in pg/mL (G-CSF groups measured human G-CSF in mouse serum and EPO groups measured human EPO in mouse serum).

For data set [6], the system named is non-human primates (cynomolgus monkey). Nature of the data set: Example 22: NHP cytokine interferon-alpha (Table 47). Here is the method:
LNP formulations, shown in Table 33 (above), were administered to non-human primates (NHP) (cynomolgus monkey) (n=2) as intravenous injection (IV). The NHP were administered a single modified mRNA IV dose of 0.5 mg/kg, 0.05 mg/kg or 0.005 mg/kg of G-CSF or EPO in a dose volume of 0.5 mL/kg. The NHPs were bled before dosing with the modified mRNA LNP formulations to determine protein expression in the serum and a baseline complete blood count. After administration with the G-CSF modified mRNA formulation the NHP were bled at 8, 24, 48 and 72 hours to determined protein expression. After administration with the EPO modified mRNA formulation the NHP were bled at 8, 24, 48, 72 hours and 7 days to determined protein expression.

Data set [7] relates to mice. Nature of the data set: Example 18: time course LNP IV in mice, serum EPO/G-CSF ELISA (Table 35). The conditions noted are these: for EPO / G-CSF Serum Concentration: mice, LNP IV. Here is the method:
(§1) Formulations, listed in Table 33, were characterized by particle size, zeta potential, and encapsulation.
LNP formulations, shown in Table 33 (above), were administered to mice (n=5) intravenously (IV) at a single modified mRNA dose of 0.5, 0.05 or 0.005 mg/kg. The mice were bled at 8 hours, 24 hours, 72 hours and 6 days after they were administered with G-CSF or EPO modified mRNA formulations to determine protein expression using ELISA.
Background: An ELISA detects its analyte on a solid surface through an enzyme-linked reagent.

Data set [8] concerns mice. Nature of the data set: Example 19A: LNP IV in mice, serum EPO/G-CSF ELISA (Table 36). As for the experimental part:
as §1
LNP formulations, shown in Table 33 (above), were administered to mice (n=4) intravenously (IV) at a single modified mRNA dose 0.05 mg/kg or 0.005 mg/kg. There was also 3 control groups of mice (n=4) that were untreated. The mice were bled at 2 hours, 8 hours, 24 hours, 48 hours and 72 hours after they were administered with G-CSF or EPO modified mRNA formulations to determine the protein expression. Protein expression of G-CSF and EPO were determined using ELISA.

[9] abbreviates: G-CSF group: human G-CSF in mouse serum.

On to “Luciferase: luciferase mRNA, SEQ ID NO: 14, Cap1, fully modified with 5-methylcytosine and pseudouridine”, for which the “Average Protein Product, serum” value in data set [1] was found to be 0.0 pg/mL; in data set [5] (EPO group: human EPO in mouse serum) it was 15.0 pg/mL; in data set [5] (setting [9]), 0.5 pg/mL. In addition, in data set [2], the “human EPO in serum, Avg.” value was 37.2 pg/mL. Moreover, the “human EPO in serum, Geometric-mean” value in data set [2] amounted to 29.2 pg/mL. The “Average Protein Product, serum (human EPO)” value in data set [3] (EPO group) is 26.7 pg/mL. Moreover, the “Average Protein Product, serum (human G-CSF)” value in data set [3] was determined as 0 pg/mL. In addition, the figures for the “Average Level in serum (human EPO)” value in data set [4] (mice IM) and in data set [4] (mice SC) were 0 pg/mL and 26.7 pg/mL, respectively.

B1: G-CSF: modified mRNA encoding human G-CSF, SEQ ID NO: 4, Cap1, fully modified with 5-methylcytosine and pseudouridine; LNP-formulated in Examples 16-22 (nucleic acid)
chain: GGGAAAUAAGAGAGAAAAGAAGAGUAAGAAGAAAUAUAAGAGCCACCAUGGCCGGUCCCGCGACCCAAAGCCCCAUGAAACUUAUGGCCCUGCAGUUGCUGCUUUGGCACUCGGCCCUCUGGACAGUCCAAGAAGCGACUCCUCUCGGACCUGCCUCAUCGUUGCCGCAGUCAUUCCUUUUGAAGUGUCUGGAGCAGGUGCGAAAGAUUCAGGGCGAUGGAGCCGCACUCCAAGAGAAGCUCUGCGCGACAUACAAACUUUGCCAUCCCGAGGAGCUCGUACUGCUCGGGCACAGCUUGGGGAUUCCCUGGGCUCCUCUCUCGUCCUGUCCGUCGCAGGCUUUGCAGUUGGCAGGGUGCCUUUCCCAGCUCCACUCCGGUUUGUUCUUGUAUCAGGGACUGCUGCAAGCCCUUGAGGGAAUCUCGCCAGAAUUGGGCCCGACGCUGGACACGUUGCAGCUCGACGUGGCGGAUUUCGCAACAACCAUCUGGCAGCAGAUGGAGGAACUGGGGAUGGCACCCGCGCUGCAGCCCACGCAGGGGGCAAUGCCGGCCUUUGCGUCCGCGUUUCAGCGCAGGGCGGGUGGAGUCCUCGUAGCGAGCCACCUUCAAUCAUUUUUGGAAGUCUCGUACCGGGUGCUGAGACAUCUUGCGCAGCCGUGAAGCGCUGCCUUCUGCGGGGCUUGCCUUCUGGCCAUGCCCUUCUUCUCUCCCUUGCACCUGUACCUCUUGGUCUUUGAAUAAAGCCUGAGUAGGAAG
modifications: Cap1, 5-methylcytosine, pseudouridine
Take B1: the IFN-alpha in data set [6] (0.005 mg/kg, 4 days, Female NHP) worked out at 0 pg/mL; in data set [6] (0.005 mg/kg, 4 days, Male NHP), 0 pg/mL; in data set [6] (0.005 mg/kg, Day 1 + 8 hr, Female NHP), 0 pg/mL; in data set [6] (0.005 mg/kg, Day 1 + 8 hr, Male NHP), 0 pg/mL; in data set [6] (0.005 mg/kg, Pre-dose, Female NHP) it was 0 pg/mL; in data set [6] (0.005 mg/kg, Pre-dose, Male NHP), 0 pg/mL. Also, the IFN-alpha in data set [6] (0.05 mg/kg, 4 days, Female NHP) is recorded as 0 pg/mL; in data set [6] (0.05 mg/kg, 4 days, Male NHP) it was 0 pg/mL; in data set [6] (0.05 mg/kg, Day 1 + 8 hr, Female NHP), 0 pg/mL; in data set [6] (0.05 mg/kg, Day 1 + 8 hr, Male NHP), 0 pg/mL; in data set [6] (0.05 mg/kg, Pre-dose, Female NHP), 0 pg/mL; in data set [6] (0.05 mg/kg, Pre-dose, Male NHP), 0 pg/mL. Moreover, the IFN-alpha in data set [6] (0.5 mg/kg, 4 days, Female NHP) worked out at 0 pg/mL; in data set [6] (0.5 mg/kg, 4 days, Male NHP), 0 pg/mL; in data set [6] (0.5 mg/kg, Day 1 + 8 hr, Female NHP), 529.2 pg/mL; in data set [6] (0.5 mg/kg, Day 1 + 8 hr, Male NHP), 503.8 pg/mL; in data set [6] (0.5 mg/kg, Pre-dose, Female NHP) it was 0 pg/mL; in data set [6] (0.5 mg/kg, Pre-dose, Male NHP), 0 pg/mL. In addition, in data set [7] (mice IV, 0.005 mg/kg and 0.05 mg/kg), the “protein expression detectable out to” value was found to be 72 h. Moreover, the “EPO / G-CSF Serum Concentration” value in data set [7] (0.005 mg/kg, 8 hours) is 11,550.6 pg/ml; in data set [7] (0.005 mg/kg, 24 hours) it was 5,068.9 pg/ml; in data set [7] (0.05 mg/kg, 8 hours), 462,312.5 pg/ml; in data set [7] (0.05 mg/kg, 24 hours), 80,903.8 pg/ml; in data set [7] (0.5 mg/kg, 8 hours), >1,250,000 pg/ml; in data set [7] (0.5 mg/kg, 24 hours), 495,812.5 pg/ml. In addition, the “EPO / G-CSF Serum Concentration” value in data set [7] (0.5 mg/kg, 72 hours) was 1,325.6 pg/ml; in data set [8] (0.005 mg/kg, 2 hours), 3,447.8 pg/ml; in data set [8] (0.005 mg/kg, 8 hours), 11,454.0 pg/ml; in data set [8] (0.005 mg/kg, 24 hours) it was 4,960.2 pg/ml; in data set [8] (0.005 mg/kg, 48 hours), 686.4 pg/mL; in data set [8] (0.05 mg/kg, 2 hours), 20,951.4 pg/ml. Besides, the “EPO / G-CSF Serum Concentration” value in data set [8] (0.05 mg/kg, 8 hours) is 70,012.8 pg/ml; in data set [8] (0.05 mg/kg, 24 hours), 19,356.2 pg/ml; in data set [8] (0.05 mg/kg, 48 hours), 1,963.0 pg/ml; in data set [8] (0.05 mg/kg, 72 hours), 47.3 pg/mL. In addition, the “Average Protein Product, serum (human G-CSF)” value in data set [3] was found to be 45 pg/mL. Also, the “Average Protein Product, serum” value in data set [5] (setting [9]) stood at 19.8 pg/mL.
